“Also recorded” adds a separate entry of the source.
Key:
[1] = tested on: HUVEC, HMVEC or peripheral blood B cells; test: ADCC of normal ICAM-1 expressing cells; type: cell-based
Description: Buffy coats from human donors (ordered through Blodcentralen, Lund) were used to isolate peripheral blood mononuclear cells (PBMCs), and subsequently NK cells. Briefly, peripheral blood components were separated using Ficoll Paque PLUS (Amersham Biosciences, Sweden) in LeucoSep tubes (Greiner Bio-One). The PBMC fraction was removed and thoroughly washed in ice-cold DPBS (Invitrogen), before magnetic labeling and separation of the NK cell population using positive or negative NK cell isolation kits and MACS LS columns (Miltenyi Biotec). The purity of the obtained NK cell fractions was analyzed using flow cytometry, after staining with α-CD56 antibodies (BD Biosciences). Target cells were harvested, and incubated in medium with or without the respective antibodies (2 μg/mL) for 60 min on ice. Cells were thereafter washed and resuspended in cold medium before dispension into FACS tubes. Subsequently, isolated NK cells were diluted in ADCC medium and dispensed together with the respective antibody-coated target cells at varying effector/target cell ratios (40:1, 20:1, 5:1 and 1:1). All experiments were performed in triplicates. After completed incubation ToPo-Pro-3 dye and counting beads (Invitrogen) were added and cells were analyzed for membrane permeabilization using flow cytometry.

RPMI-8226 myeloma cells = test: Disseminated RPMI-8226 model of multiple myeloma; type: in vivo, SCID mice; conditions: 2 mg/kg i.v. twice weekly for 8 weeks, vs control mAb and standard of care drugs
Method: ARH-77 cells or RPMI-8226 were injected intraveniously into the SCID mice. (FIG. 6A) ARH-77 model. Animals received intravenous injections with antibody at 2 mg/kg or bortezomib (Velcade) at 0.5 mg/kg on Days 7, 10, 13, and 16 (as indicated by arrows in the graph). (FIG. 6B) RPMI-8226-model. BI-505 or control mAb was administered i.v at 2 mg/kg, twice weekly for 8 weeks, bortezomid, at 1 mg/kg, once weekly for 8 weeks, lenalidomide p.o with 2 mg/kg for 2 cycles consisting of 5 days of treatment and 2 days of wash out, melphalan i.v at 3 mg/kg, once weekly for 8 weeks, and dexamethasone (DXH) at 6 mg/kg/inj 3 times/week for 2 consecutive weeks. There were 6-10 mice per treatment group. Statistical significance was calculated using Log-rank Graphpad Prism software and determined at ***p<0.001. (FIG. 6C) To study the ICAM-1 level on human cells, the cells from different organs were stained and gated for CD38+/mCD45−/BI-505+. Left panel indicates the percentage of BI-505 positive cells in CD38+/mCD45 population and right panel the mean fluorescent intensity of the positive cells.
The anti-myeloma effect of BI-505 was examined in a disseminated model of multiple myeloma. The early and advanced disseminated model of multiple myeloma was performed at Oncodesign, Dijon, France. […]

mouse FcγRIV = target: T1, mouse FcγRIV (Mus musculus, UniProt A0A0B4J1G0); test: Biacore binding of BI-505 isotype variants to mouse FcγRIV
T1 construct: made in house; host or cells: HEK293E (transient)
T1 sequence (A0A0B4J1G0 21-249): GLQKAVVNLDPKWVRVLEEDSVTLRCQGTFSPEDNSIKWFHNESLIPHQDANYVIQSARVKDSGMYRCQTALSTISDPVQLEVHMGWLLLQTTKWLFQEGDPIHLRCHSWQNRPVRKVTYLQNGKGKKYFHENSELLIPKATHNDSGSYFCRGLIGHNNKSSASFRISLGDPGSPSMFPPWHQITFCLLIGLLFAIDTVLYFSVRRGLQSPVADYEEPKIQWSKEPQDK
Method: His-tagged human FcγRIIIa or mouse FcγRIV were expressed transient in adherent HEK293E cells, purified using Ni-NTA chromatography and characterized using SDS-PAGE and/or Biacore. Surface plasmon resonance (SPR) measurements were perfomed using a Biacore 3000 instrument. Goat α-human-F(ab)′2 F(ab)′2 fragment (Jackson laboratories) was immobilised with a CM-5 chip using a standard amine coupling protocol. IgG1 B11, Iga4 B11, or 297Q B11 were diluted to 15 and 60 μg/mL respectively and added to the surface at […] for 3 min. His tagged human FcγRIIIa or mouse FcγRIV were pre-incubated with an α-HIS antibody (R&D Systems) at a 2:1 molar ratio before addition to the chip surface, […], 1 min. After each cycle the surface was regenerated twice with glycine buffer pH 1.7.

[2] = Mouse serum antibody levels by ELISA at end of xenograft experiment; type: in vivo; conditions: mouse serum at end of experimentation
Method: We next performed a dose-titration experiment to establish IgG B11 in vivo potency and the minimal dose achieving maximal anti-tumor activity, using the scid/ARH-77 model system. […] Mouse serum antibody trough concentrations were determined by ELISA at the end of experimentation. Trough antibody concentrations were then plotted against percent of maximal in vivo anti-tumour activity, and against percent of maximal ICAM-1 receptor occupancy and tumour cell PCD at corresponding antibody concentrations in vitro (FIGS. 3C, 3D, 3E, 3F and 3G). Strikingly, a near perfect correlation between antibody concentration and in vitro tumour cell receptor occupancy, in vitro tumor cell PCD, and in vivo anti-tumour activity was observed, consistent with ICAM-1 dependent direct cell cytotoxicity underlying in vivo anti-tumour activity.

PBMC = PBMC cytokine release; type: cell-based

B1: IgG B11: fully human ICAM-1 antibody isolated from the n-CoDeR library; VH/VL sequences in FIG. 15 (SEQ ID NOs 8, 10) (antibody, V domains shown)
VH: EVQLLESGGGLVQPGGSLRLSCAASGFTFSNAWMSWVRQAPGKGLEWVAFIWYDGSNKYYADSVKGRFTISRDNSKNTLYLQMNSLRAEDTAVYYCARYSGWYFDYWGQGTLVTVSS
VL: QSVLTQPPSASGTPGQRVTISCTGSSSNIGAGYDVHWYQQLPGTAPKLLIYDNNNRPSGVPDRFSGSKSGTSASLAISGLRSEDEADYYCQSYDSSLSAWLFGGGTKLTVLG
modifications: B11 VH region; B11 VL region
ADCC of normal cells [1]: did not confer ADCC
survival (RPMI-8226 myeloma cells): significantly enhanced survival
survival (RPMI-8226 myeloma cells; listed as BI-505): significantly enhances survival; also recorded: highly improved survival
binding to murine FcγRIV (mouse FcγRIV): strong binding
In vivo IgG Levels (serum antibody titers) ([2]; dose 0.02 mg/kg): 0.06 ± 0.02 µg/mL
In vivo IgG Levels (serum antibody titers) ([2]; dose 0.2 mg/kg): 1.2 ± 0.4 µg/mL
In vivo IgG Levels (serum antibody titers) ([2]; dose 2 mg/kg): 20 ± 2.9 µg/mL
cytokine release (PBMC; added in solution, resting or lipopolysaccharide pre-stimulated PBMCs): did not induce or enhance cytokine release
PBMC cytokine release (PBMC; immobilised by either protocol, or in solution with or without cross-linking reagent): induce PBMC cytokine release
